Patent US20030215451A1 (Genentech, published 2003)

What was measured:
integrin αvβ3 = integrin αvβ3 (UniProt P06756 31-1048; P05106 27-788); experiment: cell-based or functional assay
[1] = target: T1, Tie1 receptor (full length receptor construct) (UniProt P35590 22-1138, limits assumed); experiment: co-immunoprecipitation from co-transfected 293 cells: anti-Tie1 IP, anti-gD immunoblot
T1 construct: whole, on cells; Full length receptor expressed in 293 cells and assayed from RIPA lysate, not on intact cells
T1 sequence (P35590 22-1138 limits assumed): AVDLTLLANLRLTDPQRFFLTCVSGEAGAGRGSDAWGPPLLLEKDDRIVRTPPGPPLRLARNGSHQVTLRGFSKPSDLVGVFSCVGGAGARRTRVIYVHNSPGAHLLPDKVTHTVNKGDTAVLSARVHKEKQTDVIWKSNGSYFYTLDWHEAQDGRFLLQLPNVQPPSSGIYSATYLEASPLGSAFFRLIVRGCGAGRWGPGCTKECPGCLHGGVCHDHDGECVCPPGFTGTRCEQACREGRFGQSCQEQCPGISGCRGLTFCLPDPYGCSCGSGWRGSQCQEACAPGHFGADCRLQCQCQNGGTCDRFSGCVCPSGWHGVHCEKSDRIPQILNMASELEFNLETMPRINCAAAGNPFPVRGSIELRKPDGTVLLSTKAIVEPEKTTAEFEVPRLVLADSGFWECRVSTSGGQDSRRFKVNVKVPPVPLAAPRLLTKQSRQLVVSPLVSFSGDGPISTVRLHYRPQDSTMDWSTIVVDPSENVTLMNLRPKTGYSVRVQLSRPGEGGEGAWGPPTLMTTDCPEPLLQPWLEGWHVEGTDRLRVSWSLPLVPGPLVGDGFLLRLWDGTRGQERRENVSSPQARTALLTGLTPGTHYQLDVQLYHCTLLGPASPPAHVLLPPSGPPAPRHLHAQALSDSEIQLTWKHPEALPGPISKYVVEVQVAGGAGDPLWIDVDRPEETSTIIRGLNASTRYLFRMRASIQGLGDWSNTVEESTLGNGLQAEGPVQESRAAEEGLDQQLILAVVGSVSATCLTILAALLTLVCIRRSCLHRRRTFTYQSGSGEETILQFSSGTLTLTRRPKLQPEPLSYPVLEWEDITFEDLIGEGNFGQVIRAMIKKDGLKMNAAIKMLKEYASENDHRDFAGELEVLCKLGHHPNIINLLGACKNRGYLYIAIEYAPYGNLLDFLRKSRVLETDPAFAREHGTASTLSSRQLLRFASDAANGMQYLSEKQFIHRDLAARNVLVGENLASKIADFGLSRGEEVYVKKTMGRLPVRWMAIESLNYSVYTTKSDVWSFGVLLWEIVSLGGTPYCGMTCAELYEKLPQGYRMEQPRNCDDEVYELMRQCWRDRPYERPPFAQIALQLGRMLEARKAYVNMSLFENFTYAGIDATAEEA

[2] = target: T2, Tie2 receptor (full length receptor construct) (UniProt Q02763 23-1124, limits assumed); experiment: co-immunoprecipitation from co-transfected 293 cells: anti-Tie2 IP, anti-gD immunoblot
T2 construct: whole, on cells; Full length receptor expressed in 293 cells and assayed from RIPA lysate, not on intact cells
T2 sequence (Q02763 23-1124 limits assumed): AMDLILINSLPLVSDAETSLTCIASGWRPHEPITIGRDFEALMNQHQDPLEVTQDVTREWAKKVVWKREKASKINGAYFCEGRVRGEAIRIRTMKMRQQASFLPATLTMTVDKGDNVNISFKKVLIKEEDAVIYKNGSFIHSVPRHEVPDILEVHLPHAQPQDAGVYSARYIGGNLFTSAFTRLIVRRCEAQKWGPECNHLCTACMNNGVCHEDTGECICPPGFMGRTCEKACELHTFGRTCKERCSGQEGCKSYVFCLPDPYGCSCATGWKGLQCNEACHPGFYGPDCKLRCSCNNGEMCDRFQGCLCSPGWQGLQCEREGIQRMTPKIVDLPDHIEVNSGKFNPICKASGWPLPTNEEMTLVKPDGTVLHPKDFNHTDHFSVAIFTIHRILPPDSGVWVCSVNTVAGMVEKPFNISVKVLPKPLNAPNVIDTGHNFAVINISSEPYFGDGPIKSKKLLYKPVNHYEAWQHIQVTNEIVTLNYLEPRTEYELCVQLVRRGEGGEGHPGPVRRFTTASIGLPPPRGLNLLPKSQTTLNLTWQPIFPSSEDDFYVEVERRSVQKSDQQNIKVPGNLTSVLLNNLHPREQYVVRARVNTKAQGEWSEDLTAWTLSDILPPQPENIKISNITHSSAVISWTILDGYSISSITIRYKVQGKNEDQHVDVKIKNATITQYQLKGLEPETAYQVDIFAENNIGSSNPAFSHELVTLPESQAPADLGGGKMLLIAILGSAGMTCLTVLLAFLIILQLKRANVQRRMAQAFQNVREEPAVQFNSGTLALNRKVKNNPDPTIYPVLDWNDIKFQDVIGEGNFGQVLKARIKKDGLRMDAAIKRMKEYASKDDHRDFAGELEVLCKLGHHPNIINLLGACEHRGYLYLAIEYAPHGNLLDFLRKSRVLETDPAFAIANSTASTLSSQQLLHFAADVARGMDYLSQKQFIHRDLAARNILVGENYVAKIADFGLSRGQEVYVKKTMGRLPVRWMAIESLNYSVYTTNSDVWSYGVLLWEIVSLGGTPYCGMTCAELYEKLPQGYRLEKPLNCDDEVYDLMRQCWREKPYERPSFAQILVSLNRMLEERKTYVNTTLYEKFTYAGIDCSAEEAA

integrin αvβ3, sequence (P06756 31-1048, chain 1 of 2): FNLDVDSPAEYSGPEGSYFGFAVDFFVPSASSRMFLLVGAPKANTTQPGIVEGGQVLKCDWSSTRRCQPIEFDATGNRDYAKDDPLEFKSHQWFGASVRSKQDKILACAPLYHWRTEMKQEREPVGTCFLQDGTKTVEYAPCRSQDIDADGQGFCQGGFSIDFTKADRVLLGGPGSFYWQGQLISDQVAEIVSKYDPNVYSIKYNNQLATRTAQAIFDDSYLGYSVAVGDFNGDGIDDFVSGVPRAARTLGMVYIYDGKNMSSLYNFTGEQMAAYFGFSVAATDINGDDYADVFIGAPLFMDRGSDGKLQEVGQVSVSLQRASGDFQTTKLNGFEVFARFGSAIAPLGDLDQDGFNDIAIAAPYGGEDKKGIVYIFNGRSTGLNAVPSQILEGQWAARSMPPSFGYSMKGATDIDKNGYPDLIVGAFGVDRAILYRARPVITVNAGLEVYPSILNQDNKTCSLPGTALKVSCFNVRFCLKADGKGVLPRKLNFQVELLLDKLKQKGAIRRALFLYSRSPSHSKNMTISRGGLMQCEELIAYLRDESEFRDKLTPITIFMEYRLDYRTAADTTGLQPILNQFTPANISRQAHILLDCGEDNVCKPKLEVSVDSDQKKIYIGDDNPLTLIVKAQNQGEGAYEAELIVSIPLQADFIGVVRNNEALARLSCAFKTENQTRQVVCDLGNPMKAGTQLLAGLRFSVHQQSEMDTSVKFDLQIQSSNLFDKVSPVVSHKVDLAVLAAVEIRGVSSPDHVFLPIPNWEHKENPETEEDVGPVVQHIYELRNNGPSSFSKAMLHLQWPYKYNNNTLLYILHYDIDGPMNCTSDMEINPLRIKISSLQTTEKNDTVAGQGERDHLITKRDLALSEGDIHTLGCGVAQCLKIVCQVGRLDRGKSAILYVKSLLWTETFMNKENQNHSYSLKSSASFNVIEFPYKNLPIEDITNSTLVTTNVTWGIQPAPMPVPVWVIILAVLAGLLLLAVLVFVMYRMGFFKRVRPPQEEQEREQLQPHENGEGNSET
integrin αvβ3, sequence (P05106 27-788, chain 2 of 2): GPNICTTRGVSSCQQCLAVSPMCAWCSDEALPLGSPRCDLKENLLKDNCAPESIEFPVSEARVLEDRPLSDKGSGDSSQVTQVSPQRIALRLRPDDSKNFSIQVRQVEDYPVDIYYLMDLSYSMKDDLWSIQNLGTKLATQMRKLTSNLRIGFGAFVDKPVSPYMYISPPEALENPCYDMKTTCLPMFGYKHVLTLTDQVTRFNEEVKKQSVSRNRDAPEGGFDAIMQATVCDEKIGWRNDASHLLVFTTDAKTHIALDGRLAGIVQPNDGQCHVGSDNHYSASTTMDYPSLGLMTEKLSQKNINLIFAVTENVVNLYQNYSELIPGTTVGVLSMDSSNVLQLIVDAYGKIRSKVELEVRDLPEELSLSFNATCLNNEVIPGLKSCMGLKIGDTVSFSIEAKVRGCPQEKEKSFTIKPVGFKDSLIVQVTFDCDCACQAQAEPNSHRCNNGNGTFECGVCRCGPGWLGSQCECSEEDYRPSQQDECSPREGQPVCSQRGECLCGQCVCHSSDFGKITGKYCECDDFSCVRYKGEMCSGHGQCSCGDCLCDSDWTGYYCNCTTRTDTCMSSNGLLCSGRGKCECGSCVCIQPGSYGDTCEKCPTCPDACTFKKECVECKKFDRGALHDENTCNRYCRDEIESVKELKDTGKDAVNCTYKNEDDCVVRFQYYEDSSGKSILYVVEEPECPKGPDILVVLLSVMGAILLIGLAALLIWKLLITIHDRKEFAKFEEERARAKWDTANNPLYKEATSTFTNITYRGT

B1: recombinant human Angptl3 tagged with an amino-terminal gD epitope (ligand, not shown: small tags and cut ends)
chain: SRIDQDNSSFDSLSPEPKSRFAMLDDVKILANGLLQLGHGLKDFVHKTKGQINDIFQKLNIFDQSFYDLSLQTSEIKEEEKELRRTTYKLQVKNEEVKNMSLELNSKLESLLEEKILLQQKVKYLEEQLTNLIQNQPETPEHPEVTSLKTFVEKQDNSIKDLLQTVEDQYKQLNQQHSQIKEIENQLRRTSIQEPTEISLSSKPRAPRTTPFLQLNEIRNVKHDGIPAECTTIYNRGEHTSGMYAIRPSNSQVFHVYCDVISGSPWTLIQHRIDGSQNFNETWENYKYGFGRLDGEFWLGLEKIYSIVKQSNYVLRIELEDWKDNKHYIEYSFYLGNHETNYTLHLVAITGNVPNAIPENKDLVFSTWDHKAKGHFNCPEGYSGGWWWHDECGENNLNGKYNKPRAKSKPERRRGLSWKSQNGRLYSIKSTKMLIHPTDSESFE
modifications: glycosylated (PNGase-F sensitive)
notes: Purified from baculovirus-infected insect cells for the adhesion and migration assays; Expressed in transiently transfected 293 cells for the co-immunoprecipitation; Both are treated here as one molecule; also called hAngptl3; gD-tagged Angptl3
Q: For B1, which “migration of HMVEC (cells/microscopic field)” value (integrin αvβ3) is on record?
A: 2.5 fold

Q: Does B1 bind [1]?
A: no binding

Q: Does B1 bind [2]?
A: no binding
